Numbering of substitutions follows the chain as printed.
Experiments:
[1] = target: T1, human follicle-stimulating hormone receptor (FSHR) (human, UniProt P23945 18-695); test: FACS on huFSHR L-cells, 4-fold serial dilutions, goat anti-mouse IgG-APC detection
T1 construct: whole, on cells; also called huFSHR; hFSHR
T1 sequence (looked up): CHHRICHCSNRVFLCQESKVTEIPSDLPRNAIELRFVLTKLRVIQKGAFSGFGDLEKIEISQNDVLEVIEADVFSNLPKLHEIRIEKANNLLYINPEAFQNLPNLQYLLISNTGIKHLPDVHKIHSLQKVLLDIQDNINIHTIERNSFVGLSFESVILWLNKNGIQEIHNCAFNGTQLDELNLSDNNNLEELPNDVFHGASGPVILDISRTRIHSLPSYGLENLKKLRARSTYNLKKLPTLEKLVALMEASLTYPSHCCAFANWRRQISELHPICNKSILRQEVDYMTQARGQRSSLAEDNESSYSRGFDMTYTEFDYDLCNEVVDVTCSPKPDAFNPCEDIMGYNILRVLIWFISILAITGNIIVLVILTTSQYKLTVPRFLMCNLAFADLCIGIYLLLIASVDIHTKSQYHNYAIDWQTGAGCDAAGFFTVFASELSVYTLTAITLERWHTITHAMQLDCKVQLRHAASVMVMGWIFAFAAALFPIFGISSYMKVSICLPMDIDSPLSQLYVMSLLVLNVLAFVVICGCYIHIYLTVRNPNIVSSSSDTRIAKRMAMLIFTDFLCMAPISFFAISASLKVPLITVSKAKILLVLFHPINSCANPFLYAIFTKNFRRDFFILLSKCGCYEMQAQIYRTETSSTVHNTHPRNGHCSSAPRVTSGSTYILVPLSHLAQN
Procedure: (§1) In order to characterize and to check whether the IgGs anti human FSHR retain specificity for huFSHR and whether they bind to this receptor with higher affinity than known antibody, a binding FACS experiment using different IgGs (MABs) concentrations and huFSHR-L-cell and WT L-cells was performed. These cells were QCed for huFSHR expression.
(§2) The HuFSHR L-cells were prepared as previously described [Vannier et al 1996 [15]. Briefly, mouse L cells were co-transfected, using the calcium phosphate precipitate method, with the plasmid encoding the hFSHR (pSG5-hFSHR) and with the plasmid pSV-Neo, a vector which confers resistance to the antibiotic G 418. Neomycin-resistant cells were selected in DMEM supplemented with 10% fetal calf serum and G 418 (geneticin, SIGMA-ALDRICH®) (1 mg/mL). […] The transfected cells were maintained in medium containing G 418 (200 ig/mL) for further studies. The samples were 4-fold serial dilution of monoclonal antibodies and buffer: FACS buffer (1×PBS containing 0.4 g/l human albumin, pH 7.4).
(§3) 100 μl/well of goat anti-mouse IgG conjugated to APC (GAM-APC) (BD™ Bioscience, 1:500 dilution) was added to the cells and incubated for 30 min at 4° C., gently shaking

[2] = target: T1, human follicle-stimulating hormone …; test: immunofluorescence microscopy on fixed FSHR-L-cells
Procedure: FSHR-L-cells and wild type L-cells were cultured at 37° C. on LabTeck 8-wells (10,000 cells/well) in DMEM containing 10% horse serum, 1 mM glutamine, 1 mM pyruvate in presence of 5% CO₂. When reached 70% confluence, the cells were washed with PBS (three times) and fixed with 4% paraformaldehyde in PBS (15 min at room temperature (RT)). The free aldehyde groups were quenched with 100 mM NH₄Cl in PBS for 15 min at RT (i.e. 20° C.). To block the nonspecific binding of antibodies the cells were incubated 1 hour at RT (i.e. 20° C.) with PBS (pH=7.4) containing 2% goat serum (blocking buffer). FSHR was detected by incubating cells with serial dilutions of the monoclonal primary antibodies 1, 2, 3, 4, and 5 (3 μg/ml−1 μg/ml—0.3 μg/ml−0.1 μg/ml, 0.03 μg/ml, and 0.01 μg/ml of blocking buffer) overnight at 4° C. and with goat anti-mouse IgG-Alexa 555 (Invitrogen #A21137; dilution 1:1000 in blocking buffer) for 1 hour at room temperature. The known FSHR323 antibody (INSERM-Transfert, Paris) was used as a positive IgG2a control (3 μg/ml) as previously described in Radu et al. 2010 [9]. The cell nuclei were detected by incubating cells for 10 min with DAPI (SIGMA-ALDRICH®#32670; dilution 1:1000 in PBS). The slides were mounted in Dako fluorescent mounting medium containing 15 mM sodium azide and examined with an Olympus microscope.

[3] = target: T1, human follicle-stimulating hormone …; test: peroxidase immunohistochemistry on paraffin sections of human testis; this end is tied to antibody 4 by the example in the sentence (0.2 against 5 µg/ml)
Procedure: Immunohistochemistry: Serial 3-μm-thick sections of human testis tissue (n=30 sections) were cut, attached to SuperFrost slides, deparaffinized with xylene, […] gradually in ethanol and washed with running tap water for 60 min. Access to tissue antigen sites for antibody attachment was enhanced by incubating slides at 90° C. for 40 min with 10 mM citrate buffer, pH 6. After cooling at room temperature (RT) for 20 min, and after each subsequent step, slides were rinsed with PBS. To block endogenous peroxidase activity, the sections were incubated with 6% hydrogen peroxide (15 min at RT, i.e. 20° C.). Sodium borohydride (10 mg/ml PBS) was used to quench free aldehyde groups (15 min, RT i.e. 20° C.). Non-specific binding of antibodies was blocked by incubating slides with 2% goat serum in Phosphate Buffer Saline (PBS) (blocking buffer) at 20° C. (RT) for 2 h. The slides were incubated with serial dilutions of the monoclonal primary antibodies 4, 2, 3 (5 μg/ml−1 μg/ml−0.2 μg/ml−0.04 μg/ml of blocking buffer) in blocking buffer overnight at 4° C. The known FSHR323 antibody (INSERM-Transfert, Paris) was used as a positive IgG2a control. […] The biotinylated goat anti-mouse IgG (Fc-specific) antibody (dilution 1:200), used as secondary antibody, was detected by using streptavidin coupled to horseradish peroxidase (dilution 1:500). […]

[4] = target: T1, human follicle-stimulating hormone …; test: FACS on huFSHR L-cells; this end is tied to antibody 1 by Table 2 (1.582/0.2112)
Procedure: as §1, §2, §3

[5] = target: T1, human follicle-stimulating hormone …; test: FACS on huFSHR L-cells; this end is tied to antibody 2 by Table 2 (1.582/0.08678)
Procedure: as §1, §2, §3

B1: mouse IgG2a anti human FSHR antibody 3 (VH CDR1 of SEQ ID NO 3, VH CDR2 of SEQ ID NO 8) (antibody, V domains shown)
VH: QVQLQQSGAELMKPGASVKISCKATGYTFSKQWLLWVKQRPGHGLEWIGEIFPRNGNTNYNEKFKGKATFTADTSSSTAYMQLSSLTSEDSAVYYCARGPTASGYAMDYWGQGTSVTVSS
VL: DVLMTQTPLSLPVSLGDQASISCRSSQSIVHRNGNTYLEWYLQKPGQSPKLLIYKVSNRFSGVPDRFSGSGSGTDFTLKIIRVEAEDLGVYYCFQGSHVPFTFGSGTKLEIK
notes: Mouse IgG2a heavy constant domains and mouse C kappa; also called sample 3; mouse IgG2 FSHR323 variant
EC50 [1]: 0.0893 nM
fold lower labelling concentration than the optimal concentration of FSHR323 [2]: 33 fold

B2: mouse IgG2a anti human FSHR antibody 5 (VH CDR1 of SEQ ID NO 5, VH CDR2 of SEQ ID NO 10) (antibody, V domains shown)
VH: B1 VH with Q32Y, L34T, L35Q, F52Y
VL: B1 VL
notes: Mouse IgG2a heavy constant domains and mouse C kappa; also called sample 5; mouse IgG2 FSHR323 variant
EC50 [1]: 0.101 nM
fold lower labelling concentration than the optimal concentration of FSHR323 [2]: 33 fold

B3: mouse IgG2a anti human FSHR antibody 4 (VH CDR1 of SEQ ID NO 4, VH CDR2 of SEQ ID NO 9) (antibody, V domains shown)
VH: B1 VH with K31R, Q32S, L34I, F52Y, R54Q, G56Q
VL: B1 VL
notes: Mouse IgG2a heavy constant domains and mouse C kappa; also called sample 4; mouse IgG2 FSHR323 variant
fold higher affinity than FSHR323 (by optimal IHC dilution) [3]: 25 fold
EC50 [1]: 0.098 nM
fold lower labelling concentration than the optimal concentration of FSHR323 [2]: 33 fold

B4: mouse IgG2a anti human FSHR antibody 1 (VH CDR1 of SEQ ID NO 1, VH CDR2 of SEQ ID NO 6) (antibody, V domains shown)
VH: B1 VH with K31Q, Q32F, W33Y, L34V, L35G, N55T
VL: B1 VL
notes: VH was cloned in frame with mouse IgG2a heavy constant domains and the V kappa with mouse C kappa; also called sample 1; mouse IgG2 FSHR323 variant
EC50 [1]: 0.211 nM
fold improvement of EC50 against the known antibody [4]: 7.5 fold
fold lower labelling concentration than the optimal concentration of FSHR323 [2]: 33 fold

B5: mouse IgG2a anti human FSHR antibody 2 (VH CDR1 of SEQ ID NO 2, VH CDR2 of SEQ ID NO 7) (antibody, V domains shown)
VH: B1 VH with K31R, L34V, L35I, F52L
VL: B1 VL
notes: Mouse IgG2a heavy constant domains and mouse C kappa; also called sample 2; mouse IgG2 FSHR323 variant
EC50 [1]: 0.0868 nM
fold lower labelling concentration than the optimal concentration of FSHR323 [2]: 33 fold
fold improvement of EC50 against the known antibody [5]: 18.2 fold

From patent publication US20210130481A1 (INSERM INSTITUT NATIONAL DE LA SANTE ET DE LA RECHERCHE …, published 2021)
